This is an account of results in publication PMC5511190.

B1: Profilin-2 (natural protein)
chain: MAGWQSYVDNLMCDGCCQEAAIVGYCDAKYVWAATAGGVFQSITPVEIDMIVGKDREGFFTNGLTLGAKKCSVIRDSLYVDGDCTMDIRTKSQGGEPTYNVAVGRAGRVLVFVMGKEGVHGGGLNKKAYSMAKYLRDSGF
B2: CaM kinase-like vesicle-associated protein (natural protein)
chain: MPFGCVTLGDKKNYNQPSEVTDRYDLGQVIKTEEFCEIFRAKDKTTGKLHTCKKFQKRDGRKVRKAAKNEIGILKMVKHPNILQLVDVFVTRKEYFIFLELATGREVFDWILDQGYYSERDTSNVVRQVLEAVAYLHSLKIVHRNLKLENLVYYNRLKNSKIVISDFHLAKLENGLIKEPCGTPEYLAPEVVGRQRYGRPVDCWAIGVIMYILLSGNPPFYEEVEEDDYENHDKNLFRKILAGDYEFDSPYWDDISQAAKDLVTRLMEVEQDQRITAEEAISHEWISGNAASDKNIKDGVCAQIEKNFARAKWKKAVRVTTLMKRLRAPEQSGTAATQSASDAATPGAAGGAIAAAAAAAAAGGAASASGASATAATEGGAGCAAKSDDIASADRSATPATDGSATPATDGSVTPATDGSITPATDGSVTPATDRSATPATDGRATPATEESTVPATQSSALPAAKAAATPEPAVAQPDSTALEGATGQAPPSSKGEEATGCAQESQRVETS
B3: WD repeat-containing protein 1 (natural protein)
chain: MPYEIKKVFASLPQVERGVSKILGGDPKGDHFLYTNGKCVILRNIDNPAIADIYTEHAHQVVVAKYAPSGFYIASGDISGKLRIWDTTQKEHLLKYEYQPFAGKIKDIAWTEDSKRIAVVGEGREKFGAVFLWDTGSSVGEITGHNKVINSVDIKQTRPYRLATGSDDNCAAFFEGPPFKFKFTIGDHSRFVNCVRFSPDGNRFATASADGQIFIYDGKTGEKVCALGESKAHDGGIYAISWSPDSTHLLSASGDKTSKIWDVNVNSVVSTFPMGSNVLDQQLGCLWQKDHLLSISLSGYINYLDKNNPSKPLRVIKGHSKSIQCLTVHRNGGKSYIYSGSHDGHINYWDSETGENDSFSGKGHTNQVSRMTVNESEQLVSCSMDDTVRYTNLTLRDYSGQGVVKLDVQPKCVAVGPGGYTVVVCIGQIVLLKDQKKCFSIDNPGYEPEVVAVHPGGDTVAVGGTDGNVRVYSILASTLKDEGKLLEAKGPVTDVAYSHDGAFLAVCDASKVVTVFSVADGYSENNVFYGHHAKIVCLAWSPDNEHFASGGMDMMVYVWTLSDPETKVKIQDAHRLHHVSSLAWLDEHTLVTTSHDASVKEWTITY
B4: 14-3-3 protein eta (natural protein)
chain: MGDREQLLQRARLAEQAERYDDMASAMKAVTELNEPLSNEDRNLLSVAYKNVVGARRSSWRVISSIEQKTMADGNEKKLEKVKAYREKIEKELETVCNDVLALLDKFLIKNCNDFQYESKVFYLKMKGDYYRYLAEVASGEKKNSVVEASEAAYKEAFEISKEHMQPTHPIRLGLALNFSVFYYEIQNAPEQACLLAKQAFDDAIAELDTLNEDSYKDSTLIMQLLRDNLTLWTSDQQDEEAGEGN
B5: 14-3-3 protein beta/alpha (natural protein)
chain: MTMDKSELVQKAKLAEQAERYDDMAAAMKAVTEQGHELSNEERNLLSVAYKNVVGARRSSWRVISSIEQKTERNEKKQQMGKEYREKIEAELQDICNDVLELLDKYLILNATQAESKVFYLKMKGDYFRYLSEVASGENKQTTVSNSQQAYQEAFEISKKEMQPTHPIRLGLALNFSVFYYEILNSPEKACSLAKTAFDEAIAELDTLNEESYKDSTLIMQLLRDNLTLWTSENQGDEGDAGEGEN
B6: Guanine deaminase (natural protein)
chain: MCAARTPPLALVFRGTFVHSTWTCPMEVLRDHLLGVSDSGKIVFLEESSQQEKLAKEWCFKPCEIRELSHHEFFMPGLVDTHIHAPQYAFAGSNVDLPLLEWLNKYTFPTEQRFRSTDVAEEVYTRVVRRTLKNGTTTACYFGTIHTDSSLILAEITDKFGQRAFVGKVCMDLNDTVPEYKETTEESVKETERFVSEMLQKNYPRVKPIVTPRFTLSCTETLMSELGNIAKTHDLYIQSHISENREEIEAVKSLYPSYKNYTDVYDKNNLLTNKTVMAHGCYLSEEELNIFSERGASIAHCPNSNLSLSSGLLNVLEVLKHKVKIGLGTDVAGGYSYSMLDAIRRAVMVSNVLLINKVNEKNLTLKEVFRLATLGGSQALGLDSEIGNFEVGKEFDALLINPRASDSPIDLFYGDFVGDISEAVIQKFLYLGDDRNIEEVYVGGKQVVPFSSSV
B7: 14-3-3 protein theta (natural protein)
chain: MEKTELIQKAKLAEQAERYDDMATCMKAVTEQGAELSNEERNLLSVAYKNVVGGRRSAWRVISSIEQKTDTSDKKLQLIKDYREKVESELRSICTTVLELLDKYLIANATNPESKVFYLKMKGDYFRYLAEVACGDDRKQTIENSQGAYQEAFDISKKEMQPTHPIRLGLALNFSVFYYEILNNPELACTLAKTAFDEAIAELDTLNEDSYKDSTLIMQLLRDNLTLWTSDSAGEECDAAEGAEN

The target in this test is GST-LRRK2 WD40 G2385R (human) (UniProt Q5S007). Nature of the test: affinity purification with mass spectrometry; 5 µg GST fusion protein on glutathione-Sepharose incubated with adult mouse brain lysate or crude SV fraction (LP2) (1 mg protein) 2 h at 4 °C; washes 150 mM NaCl, 2 mM EDTA, 50 mM Tris-HCl, 0.2% Triton, pH 7.4; LC-MS/MS with label-free quantification, 4 samples per condition (GST-control, GST-WD40, GST-WD40-G2385R).
Chain of GST-LRRK2 WD40 G2385R (human) (Q5S007 whole entry G2385R, the tested form may be a part): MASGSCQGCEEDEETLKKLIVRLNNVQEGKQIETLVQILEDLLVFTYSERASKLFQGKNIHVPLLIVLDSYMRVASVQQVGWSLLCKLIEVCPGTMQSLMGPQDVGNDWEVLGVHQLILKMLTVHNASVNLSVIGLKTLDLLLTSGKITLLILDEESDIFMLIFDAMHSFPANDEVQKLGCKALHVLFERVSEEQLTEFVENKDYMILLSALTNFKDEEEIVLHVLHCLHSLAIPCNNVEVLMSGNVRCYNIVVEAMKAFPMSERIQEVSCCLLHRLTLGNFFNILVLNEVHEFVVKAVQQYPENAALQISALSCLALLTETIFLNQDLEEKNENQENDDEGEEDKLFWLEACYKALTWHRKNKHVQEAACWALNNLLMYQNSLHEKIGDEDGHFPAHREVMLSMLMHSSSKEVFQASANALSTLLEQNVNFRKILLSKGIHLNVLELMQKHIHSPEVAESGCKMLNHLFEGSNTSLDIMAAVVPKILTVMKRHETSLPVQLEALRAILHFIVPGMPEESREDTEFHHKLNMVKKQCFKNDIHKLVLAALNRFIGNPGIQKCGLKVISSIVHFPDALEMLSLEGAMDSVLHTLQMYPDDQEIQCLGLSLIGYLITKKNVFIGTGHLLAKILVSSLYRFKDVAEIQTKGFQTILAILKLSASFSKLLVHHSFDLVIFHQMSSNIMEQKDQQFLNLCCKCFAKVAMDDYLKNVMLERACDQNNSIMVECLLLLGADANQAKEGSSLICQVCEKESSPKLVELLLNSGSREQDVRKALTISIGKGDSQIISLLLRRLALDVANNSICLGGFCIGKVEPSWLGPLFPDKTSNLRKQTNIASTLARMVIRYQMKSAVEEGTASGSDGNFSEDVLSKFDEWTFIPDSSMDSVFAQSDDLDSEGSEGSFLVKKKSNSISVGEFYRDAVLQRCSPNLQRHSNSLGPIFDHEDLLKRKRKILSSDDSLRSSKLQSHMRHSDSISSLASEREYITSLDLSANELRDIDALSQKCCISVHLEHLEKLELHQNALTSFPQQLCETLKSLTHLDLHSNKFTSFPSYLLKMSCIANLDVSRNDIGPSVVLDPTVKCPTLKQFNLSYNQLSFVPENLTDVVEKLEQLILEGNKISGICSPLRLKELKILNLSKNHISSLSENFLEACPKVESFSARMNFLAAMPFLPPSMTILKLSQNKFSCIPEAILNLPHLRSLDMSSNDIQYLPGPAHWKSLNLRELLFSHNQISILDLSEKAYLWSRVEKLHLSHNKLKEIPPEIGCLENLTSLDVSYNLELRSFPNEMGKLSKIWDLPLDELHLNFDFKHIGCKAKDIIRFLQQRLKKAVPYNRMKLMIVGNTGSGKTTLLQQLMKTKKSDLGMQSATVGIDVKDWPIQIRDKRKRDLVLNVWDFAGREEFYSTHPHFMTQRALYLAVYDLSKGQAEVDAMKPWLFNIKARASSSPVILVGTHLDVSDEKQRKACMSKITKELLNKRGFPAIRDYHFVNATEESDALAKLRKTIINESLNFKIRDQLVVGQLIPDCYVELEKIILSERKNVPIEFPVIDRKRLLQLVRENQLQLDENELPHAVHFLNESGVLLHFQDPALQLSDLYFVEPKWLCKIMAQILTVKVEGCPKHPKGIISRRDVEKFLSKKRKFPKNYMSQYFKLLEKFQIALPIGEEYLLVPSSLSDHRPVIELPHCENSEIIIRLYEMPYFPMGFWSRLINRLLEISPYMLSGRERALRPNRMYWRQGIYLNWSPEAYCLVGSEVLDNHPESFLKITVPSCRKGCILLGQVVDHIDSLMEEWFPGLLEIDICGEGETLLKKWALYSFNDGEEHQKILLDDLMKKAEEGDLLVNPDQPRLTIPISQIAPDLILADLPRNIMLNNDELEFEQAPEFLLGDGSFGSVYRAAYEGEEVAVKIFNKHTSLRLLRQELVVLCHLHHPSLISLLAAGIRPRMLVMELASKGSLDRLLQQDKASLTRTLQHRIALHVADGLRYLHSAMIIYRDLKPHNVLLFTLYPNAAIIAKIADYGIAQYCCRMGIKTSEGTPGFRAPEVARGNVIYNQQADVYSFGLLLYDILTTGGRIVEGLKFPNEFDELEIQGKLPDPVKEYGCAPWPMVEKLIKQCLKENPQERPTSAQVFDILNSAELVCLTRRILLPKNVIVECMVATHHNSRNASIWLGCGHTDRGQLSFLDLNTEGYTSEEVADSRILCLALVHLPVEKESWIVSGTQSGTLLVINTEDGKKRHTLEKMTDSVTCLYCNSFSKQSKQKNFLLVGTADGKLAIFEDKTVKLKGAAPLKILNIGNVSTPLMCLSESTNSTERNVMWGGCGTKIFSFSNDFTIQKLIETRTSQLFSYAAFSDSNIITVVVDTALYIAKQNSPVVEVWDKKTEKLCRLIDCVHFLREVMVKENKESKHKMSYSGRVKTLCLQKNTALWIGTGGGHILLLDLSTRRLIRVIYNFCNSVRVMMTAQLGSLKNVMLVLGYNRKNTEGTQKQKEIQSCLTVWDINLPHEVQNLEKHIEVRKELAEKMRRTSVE
On to B1, for which the G2385R/WT (ratio of abundance in G2385R versus wild-type bait) is 0.37.
The result for B2 reads 0.58; that for B3, 0.34.
Regarding B4, the G2385R/WT (ratio of abundance in G2385R versus wild-type bait) is 0.52.
For B5, the G2385R/WT (ratio of abundance in G2385R versus wild-type bait) stood at 0.37.
In the case of B6, the G2385R/WT (ratio of abundance in G2385R versus wild-type bait) is 0.15.
The same measure for B7: 0.35.
